Starred links: 1 amine or outer side, 2 acyl side, 3 side chain; linkers in the order of their positions; H or OH if unused. Non-standard residues stand in square brackets, D forms with d. Groups on a side chain read outwards from the residue. No end group written: not given here. *: point of attachment. C18 diacid = O=C(O)CCCCCCCCCCCCCCCCC(=O)*; γGlu = O=C(O)[C@H](CCC(=O)[*:2])N[*:1]; εLys = N[C@@H](CCCCN[*:1])C(=O)[*:2]; AEEA = NCCOCCOCC(=O)O; Aib = CC(C)(N)C(=O)O
Columns and labels:
[1] = molecular target: T1, human GIP receptor (human, UniProt P48546 22-466); assay: cell-based or functional assay
T1 sequence (looked up): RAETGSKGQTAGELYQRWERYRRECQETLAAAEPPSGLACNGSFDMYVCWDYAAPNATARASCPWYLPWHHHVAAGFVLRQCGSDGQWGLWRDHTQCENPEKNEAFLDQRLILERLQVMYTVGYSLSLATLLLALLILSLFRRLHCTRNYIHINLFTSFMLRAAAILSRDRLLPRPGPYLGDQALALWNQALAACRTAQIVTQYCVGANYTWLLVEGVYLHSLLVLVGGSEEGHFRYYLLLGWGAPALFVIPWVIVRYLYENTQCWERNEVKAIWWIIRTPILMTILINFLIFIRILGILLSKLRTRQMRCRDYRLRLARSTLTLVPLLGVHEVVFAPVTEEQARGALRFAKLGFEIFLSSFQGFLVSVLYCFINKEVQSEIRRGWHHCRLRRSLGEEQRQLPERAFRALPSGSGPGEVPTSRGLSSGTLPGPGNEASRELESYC

[2] = molecular target: human GLP-1 receptor (human, UniProt P43220 24-463); assay: cell-based or functional assay
Sequence of human GLP-1 receptor (P43220 24-463): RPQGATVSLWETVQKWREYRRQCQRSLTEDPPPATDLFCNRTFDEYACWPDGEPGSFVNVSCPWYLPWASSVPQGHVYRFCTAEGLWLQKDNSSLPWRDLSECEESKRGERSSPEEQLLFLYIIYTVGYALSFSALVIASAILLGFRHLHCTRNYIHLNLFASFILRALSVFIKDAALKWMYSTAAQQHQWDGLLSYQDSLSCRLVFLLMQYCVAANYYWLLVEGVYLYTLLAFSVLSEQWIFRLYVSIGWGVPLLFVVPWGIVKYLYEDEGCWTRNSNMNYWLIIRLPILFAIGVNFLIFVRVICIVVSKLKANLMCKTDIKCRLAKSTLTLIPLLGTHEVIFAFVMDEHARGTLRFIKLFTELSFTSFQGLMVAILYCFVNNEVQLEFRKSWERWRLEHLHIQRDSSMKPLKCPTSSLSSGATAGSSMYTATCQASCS

“human GIP (from UniProt P09681 52-93) (ligand)” gave a hGIPR, CRE Luc 0% HSA EC50 (pM) [1] of 11.3 pM and a hGIPR, CRE Luc 1% HSA EC50 (pM) [1] of 6.4 pM.

B1: Compound No. 19 (peptide)
peptide: Y[Aib]EGTFTSDYSILLEK([εLys-εLys-γGlu-C18 diacid])QAAREFINWLLAGGP-OH
modifications: N-terminus assumed
SMILES: CC[C@H](C)[C@H](NC(=O)[C@H](Cc1ccccc1)NC(=O)[C@H](CCC(=O)O)NC(=O)[C@H](CCCNC(=N)N)NC(=O)[C@H](C)NC(=O)[C@H](C)NC(=O)[C@H](CCC(N)=O)NC(=O)[C@H](CCCCNC(=O)[C@@H](N)CCCCNC(=O)[C@@H](N)CCCCNC(=O)CC[C@H](NC(=O)CCCCCCCCCCCCCCCCC(=O)O)C(=O)O)NC(=O)[C@H](CCC(=O)O)NC(=O)[C@H](CC(C)C)NC(=O)[C@H](CC(C)C)NC(=O)[C@@H](NC(=O)[C@H](CO)NC(=O)[C@H](Cc1ccc(O)cc1)NC(=O)[C@H](CC(=O)O)NC(=O)[C@H](CO)NC(=O)[C@@H](NC(=O)[C@H](Cc1ccccc1)NC(=O)[C@@H](NC(=O)CNC(=O)[C@H](CCC(=O)O)NC(=O)C(C)(C)NC(=O)[C@@H](N)Cc1ccc(O)cc1)[C@@H](C)O)[C@@H](C)O)[C@@H](C)CC)C(=O)N[C@@H](CC(N)=O)C(=O)N[C@@H](Cc1c[nH]c2ccccc12)C(=O)N[C@@H](CC(C)C)C(=O)N[C@@H](CC(C)C)C(=O)N[C@@H](C)C(=O)NCC(=O)NCC(=O)N1CCC[C@H]1C(=O)O
B1 was tested, and the “hGLP-1R, CRE Luc 0% HSA EC50 (pM)” value [2] was 8.6 pM, the “hGLP-1R, CRE Luc 1% HSA EC50 (pM)” value [2] was 365 pM and the “hGIPR, CRE Luc 0% HSA EC50 (pM)” value [1] was 6.5 pM. For the same molecule, the “hGIPR, CRE Luc 1% HSA EC50 (pM)” value [1] was 275 pM.

B2: Compound No. 18 (peptide)
peptide: Y[Aib]EGTFTSDYSILLEK([εLys-εLys-γGlu-C18 diacid])QAAREFINWLLAG-OH
modifications: N-terminus assumed
SMILES: CC[C@H](C)[C@H](NC(=O)[C@H](Cc1ccccc1)NC(=O)[C@H](CCC(=O)O)NC(=O)[C@H](CCCNC(=N)N)NC(=O)[C@H](C)NC(=O)[C@H](C)NC(=O)[C@H](CCC(N)=O)NC(=O)[C@H](CCCCNC(=O)[C@@H](N)CCCCNC(=O)[C@@H](N)CCCCNC(=O)CC[C@H](NC(=O)CCCCCCCCCCCCCCCCC(=O)O)C(=O)O)NC(=O)[C@H](CCC(=O)O)NC(=O)[C@H](CC(C)C)NC(=O)[C@H](CC(C)C)NC(=O)[C@@H](NC(=O)[C@H](CO)NC(=O)[C@H](Cc1ccc(O)cc1)NC(=O)[C@H](CC(=O)O)NC(=O)[C@H](CO)NC(=O)[C@@H](NC(=O)[C@H](Cc1ccccc1)NC(=O)[C@@H](NC(=O)CNC(=O)[C@H](CCC(=O)O)NC(=O)C(C)(C)NC(=O)[C@@H](N)Cc1ccc(O)cc1)[C@@H](C)O)[C@@H](C)O)[C@@H](C)CC)C(=O)N[C@@H](CC(N)=O)C(=O)N[C@@H](Cc1c[nH]c2ccccc12)C(=O)N[C@@H](CC(C)C)C(=O)N[C@@H](CC(C)C)C(=O)N[C@@H](C)C(=O)NCC(=O)O
With B2 the “hGLP-1R, CRE Luc 0% HSA EC50 (pM)” value [2] was 19.7 pM, the “hGLP-1R, CRE Luc 1% HSA EC50 (pM)” value [2] was 226 pM and the “hGIPR, CRE Luc 0% HSA EC50 (pM)” value [1] was 20.9 pM. The “hGIPR, CRE Luc 1% HSA EC50 (pM)” value [1] was 285 pM.

B3: Compound No. 10 (peptide)
peptide: Y[Aib]EGTFTSDYSIYLEK([AEEA-AEEA-γGlu-C18 diacid])QAAREFIEWLLAGGPSSGAPPPS-OH
modifications: N-terminus assumed
SMILES: CC[C@H](C)[C@H](NC(=O)[C@H](Cc1ccccc1)NC(=O)[C@H](CCC(=O)O)NC(=O)[C@H](CCCNC(=N)N)NC(=O)[C@H](C)NC(=O)[C@H](C)NC(=O)[C@H](CCC(N)=O)NC(=O)[C@H](CCCCNC(=O)COCCOCCNC(=O)COCCOCCNC(=O)CC[C@H](NC(=O)CCCCCCCCCCCCCCCCC(=O)O)C(=O)O)NC(=O)[C@H](CCC(=O)O)NC(=O)[C@H](CC(C)C)NC(=O)[C@H](Cc1ccc(O)cc1)NC(=O)[C@@H](NC(=O)[C@H](CO)NC(=O)[C@H](Cc1ccc(O)cc1)NC(=O)[C@H](CC(=O)O)NC(=O)[C@H](CO)NC(=O)[C@@H](NC(=O)[C@H](Cc1ccccc1)NC(=O)[C@@H](NC(=O)CNC(=O)[C@H](CCC(=O)O)NC(=O)C(C)(C)NC(=O)[C@@H](N)Cc1ccc(O)cc1)[C@@H](C)O)[C@@H](C)O)[C@@H](C)CC)C(=O)N[C@@H](CCC(=O)O)C(=O)N[C@@H](Cc1c[nH]c2ccccc12)C(=O)N[C@@H](CC(C)C)C(=O)N[C@@H](CC(C)C)C(=O)N[C@@H](C)C(=O)NCC(=O)NCC(=O)N1CCC[C@H]1C(=O)N[C@@H](CO)C(=O)N[C@@H](CO)C(=O)NCC(=O)N[C@@H](C)C(=O)N1CCC[C@H]1C(=O)N1CCC[C@H]1C(=O)N1CCC[C@H]1C(=O)N[C@@H](CO)C(=O)O
With B3 the “hGIPR, CRE Luc 0% HSA EC50 (pM)” value [1] was 11.3 pM.

B4: Compound No. 20 (peptide)
peptide: Y[Aib]EGTFTSDYSILLEK([εLys-εLys-γGlu-C18 diacid])QAAREFINWLLAGGPSS-OH
modifications: N-terminus assumed
SMILES: CC[C@H](C)[C@H](NC(=O)[C@H](Cc1ccccc1)NC(=O)[C@H](CCC(=O)O)NC(=O)[C@H](CCCNC(=N)N)NC(=O)[C@H](C)NC(=O)[C@H](C)NC(=O)[C@H](CCC(N)=O)NC(=O)[C@H](CCCCNC(=O)[C@@H](N)CCCCNC(=O)[C@@H](N)CCCCNC(=O)CC[C@H](NC(=O)CCCCCCCCCCCCCCCCC(=O)O)C(=O)O)NC(=O)[C@H](CCC(=O)O)NC(=O)[C@H](CC(C)C)NC(=O)[C@H](CC(C)C)NC(=O)[C@@H](NC(=O)[C@H](CO)NC(=O)[C@H](Cc1ccc(O)cc1)NC(=O)[C@H](CC(=O)O)NC(=O)[C@H](CO)NC(=O)[C@@H](NC(=O)[C@H](Cc1ccccc1)NC(=O)[C@@H](NC(=O)CNC(=O)[C@H](CCC(=O)O)NC(=O)C(C)(C)NC(=O)[C@@H](N)Cc1ccc(O)cc1)[C@@H](C)O)[C@@H](C)O)[C@@H](C)CC)C(=O)N[C@@H](CC(N)=O)C(=O)N[C@@H](Cc1c[nH]c2ccccc12)C(=O)N[C@@H](CC(C)C)C(=O)N[C@@H](CC(C)C)C(=O)N[C@@H](C)C(=O)NCC(=O)NCC(=O)N1CCC[C@H]1C(=O)N[C@@H](CO)C(=O)N[C@@H](CO)C(=O)O
B4 was tested, and the “hGLP-1R, CRE Luc 0% HSA EC50 (pM)” value [2] was 4.2 pM, the “hGLP-1R, CRE Luc 1% HSA EC50 (pM)” value [2] was 256 pM and the “hGIPR, CRE Luc 0% HSA EC50 (pM)” value [1] was 7.1 pM. The “hGIPR, CRE Luc 1% HSA EC50 (pM)” value [1] was 247 pM.

B5: Compound No. 21 (peptide)
peptide: Y[Aib]EGTFTSDYSILLEK([εLys-εLys-γGlu-C18 diacid])QAAREFINWLLAGGPSSGA-OH
modifications: N-terminus assumed
SMILES: CC[C@H](C)[C@H](NC(=O)[C@H](Cc1ccccc1)NC(=O)[C@H](CCC(=O)O)NC(=O)[C@H](CCCNC(=N)N)NC(=O)[C@H](C)NC(=O)[C@H](C)NC(=O)[C@H](CCC(N)=O)NC(=O)[C@H](CCCCNC(=O)[C@@H](N)CCCCNC(=O)[C@@H](N)CCCCNC(=O)CC[C@H](NC(=O)CCCCCCCCCCCCCCCCC(=O)O)C(=O)O)NC(=O)[C@H](CCC(=O)O)NC(=O)[C@H](CC(C)C)NC(=O)[C@H](CC(C)C)NC(=O)[C@@H](NC(=O)[C@H](CO)NC(=O)[C@H](Cc1ccc(O)cc1)NC(=O)[C@H](CC(=O)O)NC(=O)[C@H](CO)NC(=O)[C@@H](NC(=O)[C@H](Cc1ccccc1)NC(=O)[C@@H](NC(=O)CNC(=O)[C@H](CCC(=O)O)NC(=O)C(C)(C)NC(=O)[C@@H](N)Cc1ccc(O)cc1)[C@@H](C)O)[C@@H](C)O)[C@@H](C)CC)C(=O)N[C@@H](CC(N)=O)C(=O)N[C@@H](Cc1c[nH]c2ccccc12)C(=O)N[C@@H](CC(C)C)C(=O)N[C@@H](CC(C)C)C(=O)N[C@@H](C)C(=O)NCC(=O)NCC(=O)N1CCC[C@H]1C(=O)N[C@@H](CO)C(=O)N[C@@H](CO)C(=O)NCC(=O)N[C@@H](C)C(=O)O
In the case of B5, the “hGLP-1R, CRE Luc 0% HSA EC50 (pM)” value [2] is reported as 5.7 pM, the “hGLP-1R, CRE Luc 1% HSA EC50 (pM)” value [2] is reported as 118 pM and the “hGIPR, CRE Luc 0% HSA EC50 (pM)” value [1] is reported as 5.4 pM. For the same molecule, the “hGIPR, CRE Luc 1% HSA EC50 (pM)” value [1] was 131 pM.

Reference: patent US20220125940A1 (Novo Nordisk, published 2022)
